# Reference: PMC11257959
# pKd: −log10 of the molar value.
# Test system: NG-RYBP R47A/R53A/R56A (Homo sapiens)
# Assay: EMSA
# Conditions: apparent Kd, n=3; value assigned by fourfold loss; H2A K119 monoubiquitinated histone; DNA unmodified; EMSA: 25 mM Tris-HCl pH 7.5, 50 mM NaCl, 0.05% Tween 20, 5 mM MgCl2, 4% glycerol, 0.2 nM nucleosome, 10 min on ice, 1% agarose 0.4x TBE; cryo-EM binding: 50 mM …
substance,measurement,value
"NucH2Aub1 (EMSA, 201 bp 601)",pKd,8.00
